Data: patent US11653679B2, “High-purity steviol glycosides” (PureCircle Sdn Bhd, priority 2014, dated 2023)
Like-named read-outs stand apart in the source and are kept apart here.

Columns and labels:
Assay type in all cases: biochemical
[1] = Activity for Stevioside to Rebaudioside E conversion with UGTSL, UGTSL2, UGTLB (Examples 28, 32); conditions: 600 μL lysate, based on initial concentration of Stevioside; for Rebaudioside E formation: 0.5 mM Stevioside; for Stevioside conv. (reaction time): 0.5 mM substrate
Experimental: Activity tests were performed at 3 mL scale with 600 μL of lysate for the transformation of Stevioside using 0.5 mM of substrate, 2.5 mM of UDP-Glucose and 3 mM MgCl2 in 50 mM Sodium Phosphate buffer at pH 7.2. Samples were taken and analyzed by HPLC. HPLC Analysis. The HPLC assay was performed as described in EXAMPLE 20.
Activity tests were performed at 3 mL scale with 600 μL of lysate for the transformation of Stevioside using 0.5 mM of substrate, 2.5 mM of UDP-Glucose and 3 mM MgCl2 in 50 mM Sodium Phosphate buffer at pH 7.2. Samples were taken and analyzed by HPLC. The corresponding chromatograms are depicted in FIG. 63a.

[2] = Activity for Rubusoside to Rebaudioside E conversion with UGTSL, UGTSL2, UGTLB (Examples 29, 32); conditions: 600 μL lysate, based on initial concentration of Rubusoside; for Rebaudioside E formation: 0.5 mM Rubusoside; for Rubusoside conv. (reaction time): 0.5 mM substrate
Experimental: Activity tests were performed at 3 mL scale with 600 μL of lysate for the transformation of Rubusoside using 0.5 mM of substrate, 2.5 mM of UDP-Glucose and 3 mM MgCl2 in 50 mM Sodium Phosphate buffer at pH 7.2. Samples were taken and analyzed by HPLC. The HPLC assay was performed as described in EXAMPLE 20.
Activity tests were performed at 3 mL scale with 600 μL of lysate for the transformation of Rubusoside using 0.5 mM of substrate, 2.5 mM of UDP-Glucose and 3 mM MgCl2 in 50 mM Sodium Phosphate buffer at pH 7.2. Samples were taken and analyzed by HPLC. The corresponding chromatograms are depicted in FIG. 63b.

[3] = Activity for Rebaudioside A to Rebaudioside D conversion with UGTSL2, UGTLB (Examples 30, 32); conditions: UGTLB, 22 h., 600 μL lysate, based on initial concentration of Rebaudioside A
Experimental: Activity tests were performed at 3 mL scale with 60 μL of lysate for the transformation of Rebaudioside A using 0.5 mM of substrate, 2.5 mM of UDP-Glucose and 3 mM MgCl2 in 50 mM Sodium Phosphate buffer at pH 7.2. Samples were taken and analyzed by HPLC. The HPLC assay was performed as described in EXAMPLE 20.
Activity tests were performed at 3 mL scale with 600 μL of lysate for the transformation of Rebaudioside A using 0.5 mM of substrate, 2.5 mM of UDP-Glucose and 3 mM MgCl2 in 50 mM Sodium Phosphate buffer at pH 7.2. Samples were taken and analyzed by HPLC. The corresponding chromatogram after 23 h. of reaction is depicted in FIG. 63c.

[4] = Rubusoside conversion products with UGTSL, UGTSL2, UGTLB by LCMS (Example 33); conditions: reaction time UGTSL2 2 hrs, UGTLB 5 hrs, UGTSL 45 hrs
Experimental: (§1) Conversion of stevioside with UGTSL and UGTSL2 was conducted in similar manner to Example 28, and the conversion of rubusoside with UGTSL and UGTSL2 was conducted similarly to Example 29. Conversions of rubusoside and stevioside with UGTLB was conducted similarly to Example 32.
(§2) The reaction mixtures were analyzed by LCMS to determine all reaction products.

[5] = Stevioside conversion products with UGTSL, UGTSL2, UGTLB by LCMS (Example 33); conditions: reaction time UGTSL2 2 hrs, UGTLB 2 hrs, UGTSL 22 hrs
Experimental: as §1, §2

[6] = Catalytic test Rebaudioside A to Rebaudioside D with in-vitro expressed UDP-glucosyltransferases (Examples 20, 21), HPLC
Experimental: The prepared expression medium mix was added to the plasmid solution and the solution was allowed to incubate at 30° C. for 3 hours while mixing the mixture every 45 minutes. 5 μL of the mixture was frozen whereas the remainder was used for the catalytic test for the conversion of Rebaudioside A to Rebaudioside D.
430 μL of a reaction mixture containing 0.5 mM Rebaudioside A, 3 mM MgCl2, 50 mM phosphate buffer (pH7.2) and 2.5 mM UDP-glucose was added to a 1.5 mL sterile microtube. 52 μl of the enzyme expression medium was added and the resulting mixture was allowed to react at 30° C. for 24 hours. 125 μL samples were taken after 2 hours, 16 hours and 24 hours and added to a 115 μL of 60% methanol and 10 μL of 2 N H2SO4. The quenched sample was centrifuged at 18,000 g for 2 minutes at RT. 200 μL was transferred to an HPLC vial and analyzed.
The HPLC assay was performed as follows:
430 μL of a reaction mixture containing 0.5 mM Rebaudioside A, 3 mM MgCl2, 50 mM phosphate buffer (pH7.2) and 2.5 mM UDP-glucose was added to a 1.5 mL sterile microtube. 52 μL of the enzyme expression medium was added and the resulting mixture was allowed to react at 30° C. for 24 hours. 125 μL samples were taken after 2 hours, 16 hours and 24 hours and added to a 115 μL of 60% methanol and 10 μL of 2 N H2SO4. The quenched sample was centrifuged at 18,000 g for 2 minutes at RT. 200 μL was transferred to HPLC vial and analyzed.
(§3) The HPLC assay was performed as described in EXAMPLE 20.

[7] = Activity of in-vivo produced enzymes for transformation of Rebaudioside A (Example 22)
Experimental: Activity tests were performed at 5 mL scale with 1,000 μL of thawed lysate for the transformation of Rebaudioside A using 0.5 mM of substrate, 2.5 mM of UDP-Glucose and 3 mM MgCl2 in 50 mM Sodium Phosphate buffer at pH 7.2. Samples were taken and analyzed by HPLC.
as §3

[8] = LC-MS of reaction mixtures of GI No. 460409128 with Rebaudioside A (Example 23)
Experimental: The reaction mixtures representing GI No. 460409128, particularly the sample “12400 S115N05A7 T24h 130627ABA” of EXAMPLE 20 (hereinafter S115N05A7), and the sample “12400 S129N04 T45h 130712ABA” of EXAMPLE 22 (hereinafter S129N04) were additionally assayed by LC-MS to identify the unknown glycosides. An Agilent 1200 series HPLC system, equipped with binary pump (G1312B), autosampler (G1367D), thermostatted column compartment (G1316B), DAD detector (G1315C), connected with Agilent 6110A MSD, and interfaced with “LC/MSD Chemstation” software, was used.
The compound observed on LCMS system at 3.5 min, corresponds to compound “Unknown@4.508” in sample “S115N05A7” (EXAMPLE 20), and compound “Unknown@RT4.526” in sample “S129N04” (EXAMPLE 22).
The ratio of these compounds and the LCMS chromatograms are provided below.

[9] = 0.5 mM Rebaudioside A, 30° C., HPLC

B1: UGTLB: UDP-glucosyltransferase, Lycium barbarum, SEQ ID NO:10 (protein, listed as Escherichia coli)
chain: MGTEVTVHKNTLRVLMFPWLAYGHISPFLNVAKKLVDRGFLIYLCSTAINLKSTIKKIPEKYSDSIQLIELHLPELPELPPHYHTTNGLPPHLNHTLQKALKMSKPNFSKILQNLKPDLVIYDLLQQWAEGVANEQNIPAVKLLTSGAAVLSYFFNLVKKPGVEFPFPAIYLRKNELEKMSELLAQSAKDKEPDGVDPFADGNMQVMLMSTSRIIEAKYIDYFSGLSNWKVVPVGPPVQDPIADDADEMELIDWLGKKDENSTVFVSFGSEYFLSKEDREEIAFGLELSNVNFIWVARFPKGEEQNLEDALPKGFLERIGDRGRVLDKFAPQPRILNHPSTGGFISHCGWNSVMESVDFGVPIIAMPIHLDQPMNARLIVELGVAVEIVRDDYGKIHREEIAEILKDVIAGKSGENLKAKMRDISKNLKSIRDEEMDTAAEELIQLCKNSPKLK
**Q.** With B1 as the molecule, how does the “Rebaudioside E formation” value ([1]; UGTLB, 22 h.) read?
**A.** 3%

**Q.** What about the “Stevioside conv. (reaction time)” value ([1]; UGTLB, 22 h.) of the same molecule?
**A.** 89% (22 h.)

**Q.** And the “Rebaudioside E formation” value ([2]; UGTLB, 5 h.)?
**A.** 4%

**Q.** What about the “Rubusoside conv. (reaction time)” value ([2]; UGTLB, 5 h.) of the same molecule?
**A.** 65% (5 h.)

**Q.** And the “Rebaudioside D formation” value ([3]; 0.5 mM Rebaudioside A)?
**A.** 10%

**Q.** And the “Rebaudioside A conv. (reaction time)” value ([3]; 0.5 mM substrate)?
**A.** 72% (22 h.)

**Q.** What about the “LC-MS, peak area ratio (%): REb E” value [4] of the same molecule?
**A.** 9.21%

**Q.** What about the “LC-MS, peak area ratio (%): Reb D” value [4] of the same molecule?
**A.** 1.29%

**Q.** And the “LC-MS, peak area ratio (%): Rub” value [4]?
**A.** 13.49%

**Q.** What about the “LC-MS, peak area ratio (%): Unknown peak #1 (MW804) RT 30.70 min” value [4] of the same molecule?
**A.** 4.07%

**Q.** And the “LC-MS, peak area ratio (%): Unknown peak #2 (MW804) RT 49.50 min” value [4]?
**A.** 66.67%

**Q.** What about the “LC-MS, peak area ratio (%): Unknown peak #3 (MW804) RT 50.40 min” value [4] of the same molecule?
**A.** 5.27%

**Q.** And the “LC-MS, peak area ratio (%): Reb E” value [5]?
**A.** 3.12%

**Q.** What about the “LC-MS, peak area ratio (%): Stev” value [5] of the same molecule?
**A.** 43.11%

**Q.** What about the “LC-MS, peak area ratio (%): Unknown peak #2 (MW966) RT = 26.50 min” value [5] of the same molecule?
**A.** 53.78%

B2: gi460409128_XP_004249992.1: cyanidin-3-O-glucoside 2-O-glucuronosyltransferase-like [Solanum lycopersicum], SEQ ID NO:5; S129N04 is its Example 22 reaction sample (protein, listed as Solanum lycopersicum)
chain: MSPKLHKELFFHSLYKKTRSNHTMATLKVLMFPFLAYGHISPYLNVAKKLADRGFLIYFCSTPINLKSTIEKIPEKYADSIHLIELHLPELPQLPPHYHTTNGLPPNLNQVLQKALKMSKPNFSKILQNLKPDLVIYDILQRWAKHVANEQNIPAVKLLTSGAAVFSYFFNVLKKPGVEFPFPGIYLRKIEQVRLSEMMSKSDKEKELEDDDDDDDLLVDGNMQIMLMSTSRTIEAKYIDFCTALTNWKVVPVGPPVQDLITNDVDDMELIDWLGTKDENSTVFVSFGSEYFLSKEDMEEVAFALELSNVNFIWVARFPKGEERNLEDALPKGFLERIGERGRVLDKFAPQPRILNHPSTGGFISHCGWNSAMESIDFGVPIIAMPMHLDQPMNARLIVELGVAVEIVRDDDGKIHRGEIAETLKGVITGKTGEKLRAKVRDISKNLKTIRDEEMDAAAEELIQLCRNGN
**Q.** What does the source list for B2?
**A.** Steviol glycoside conversion in reaction mixture, Reb A [6, 9]: 46.7 % area; Steviol glycoside conversion in reaction mixture, Reb UNK (later identified as reb D2) [6, 9]: 23.3 % area; Conversion RebA to RebD ([6]; in-vitro expressed enzyme): Active; Conversion after 45 hrs. ([7]; 0.5 mM, in-vivo produced enzyme lysate): 62.1%; Reb D selectivity ([7]; after 45 hrs.): 43.6%; Steviol glycoside conversion in reaction mixture, Reb A [8]: 49.00 % area; Steviol glycoside conversion in reaction mixture, Reb D [8]: 23.73 % area; Steviol glycoside conversion in reaction mixture, Reb UNK (reb D2) [8]: 21.22 % area; Steviol glycoside conversion in reaction mixture, Unknown@RT3.5 (reb M2) [8]: 6.05 % area; Steviol glycoside conversion in reaction mixture, Reb A ([8]; listed as S115N05A7): 53.24 % area; Steviol glycoside conversion in reaction mixture, Reb D ([8]; listed as S115N05A7): 20.35 % area; Steviol glycoside conversion in reaction mixture, Reb UNK (reb D2) ([8]; listed as S115N05A7): 19.93 % area; Steviol glycoside conversion in reaction mixture, Unknown@RT3.5 (reb M2) ([8]; listed as S115N05A7): 6.47 % area; Rebaudioside E formation ([1]; reaction time UGTSL 22 h., UGTSL2 2 h.): 46%; Stevioside conv. (reaction time) ([1]; reaction time UGTSL 22 h., UGTSL2 2 h., 2.5 mM UDP-Glucose, pH 7.2): 74% (22 h.); Rebaudioside E formation ([2]; reaction time UGTSL 45 h., UGTSL2 2 h.): 27%; Rubusoside conv. (reaction time) ([2]; reaction time UGTSL 45 h., UGTSL2 2 h., 2.5 mM UDP-Glucose, pH 7.2): 70% (45 h.); LC-MS, peak area ratio (%): REb E [4]: 35.88%; LC-MS, peak area ratio (%): Reb D [4]: 3.45%; LC-MS, peak area ratio (%): Rub [4]: 7.82%; LC-MS, peak area ratio (%): Stev [4]: 2.37%; LC-MS, peak area ratio (%): Unknown peak #1 (MW804) RT 30.70 min [4]: 20.38%; LC-MS, peak area ratio (%): Unknown peak #2 (MW804) RT 49.50 min [4]: 27.75%; LC-MS, peak area ratio (%): Unknown peak #3 (MW804) RT 50.40 min [4]: 2.35%; LC-MS, peak area ratio (%): Reb D [5]: 0.54%; LC-MS, peak area ratio (%): Reb E [5]: 49.68%; LC-MS, peak area ratio (%): Stev [5]: 25.24%; LC-MS, peak area ratio (%): Unknown peak #1 (MW966) RT = 22.60 min [5]: 3.97%; LC-MS, peak area ratio (%): Unknown peak #2 (MW966) RT = 26.50 min [5]: 20.56%
